Here are results for one molecule from paper PMC8571082.

In assay [1] the target is T1, factor inhibiting HIF-1 (FIH-1), full-length (human), Q9NWT6. The assay is described as follows: SEC; FIH-1 alone, wild type at ~7 μM; profiles of FIH-1 WT and L340R. To be noted: remark: other sources report otherwise.
Assay [2] has as its target T1, factor inhibiting HIF-1 (FIH-1), …. Put plainly: SEC-MALS; FIH-1 alone at 70 μM, 50 μl on Superdex 200 10/300 GL; 35 mM Na-phosphate pH 7.5, 300 mM NaCl, 500 μM αKG. Particulars: remark: other sources report otherwise.

B1: factor inhibiting HIF-1 (FIH-1), full-length, Q9NWT6 1-349 (enzyme)
chain: MAATAAEAVASGSGEPREEAGALGPAWDESQLRSYSFPTRPIPRLSQSDPRAEELIENEEPVVLTDTNLVYPALKWDLEYLQENIGNGDFSVYSASTHKFLYYDEKKMANFQNFKPRSNREEMKFHEFVEKLQDIQQRGGEERLYLQQTLNDTVGRKIVMDFLGFNWNWINKQQGKRGWGQLTSNLLLIGMEGNVTPAHYDEQQNFFAQIKGYKRCILFPPDQFECLYPYPVHHPCDRQSQVDFDNPDYERFPNFQNVVGYETVVGPGDVLYIPMYWWHHIESLLNGGITITVNFWYKGAPTPKRIEYPLKAHQKVAIMRNIEKMLGEALGNPQEVGPLLNTMIKGRYN
As for B1, the stoichiometry N in assay [1] and in assay [2] was 2 each time.
